A protein production outcome set (Wang et al. 2014)

Assay: label from the status in PepcDB records

MFHLIRWQDIADIIIMSFLAYRLYSWFRHTRAMQVLIGLGILAGVYFVTRNLGLFMTSWILQELGTVLFVLIIVVFQAEIRQALYRFSLLRTFIGRQEGGGELDLAELGRTVFGLARERTGALIVLQRQEALDDYLLHGVKVDGLPSSHLLGSIFRNGTPLHDGAVIIKDGRVSQASCHLPLSMKTELPQNFGTRHRAGIGLSERSDAVVIIVSEERGEVGMALAGEYRKIASPEEFAEVIQGLLYPQRPENVAFTLRQRLLRNLVPKIVTTLIVIAGWLVVTTKEGGIFTVTVPIKFHNLPPRSVLVKSVPESVEVQLKVFTSLIPSPRQLDLVADLNLAGVHDGVNSLAVKDDDLNLPLGVVVTGINPPMVKVTIAGKERKQLRVRPKLTGQLPGRAKLRSVTADPDTVVVEGPGHLLEGLESLPTETVDLAGLRRGGVVERRVVSPSPQIRVLRDEPVRVVVVTSVK
protein production: failed

MFIASFITGPFQTNCYLLAREQGSECVIVDLGMGAEEFLGDALRTHHLVPVAIAVTHGHIDHIGSARQVGDEYGIPVLCPRDDRHLLSDPMAGLSDFARPLIEQWYGSTTLREPEQVVDVEPFSHHQFANLDLEFLHAPGHTPGCSMIRTIDAEFGPIVMSGDVVFAGSIGRTDMPGGDPAQMSYSLSDVVWSLDDSTHVLPGHGGPTTMANERLTNPFLGRR
protein production: failed

MFIERLVALLLLFAGEFAYLRIADRFNIIDRPNQRSSHKKNVLRGGGIIFLLGVWMYAFLNTTGYPLFIGGMTLIASVAFIDDVCSLSPRFRFFVQFVAMFLLLQEAGMLVENKVWFLLPTMILGVCIINAYNFMDGINGMTGAFSLMVLFTFWLLNREMAFIDATLIELLMISALVFCFFNFRNQAICFAGDVGSVGMAYCVIFILLKLVLFTGNVTYLLFLVVYGIDTVLTIFHRLLLHENLLQPHRKHLFQLLANEGGHSHVTVSITYVLLQLAISLGYIYLPIDKWLYSVIVTIGLVTAYLIIERKLYPKHKEYLKSLSCAVMDEGYSEKCLRNEN
protein production: failed

MFIGIYNRSVIVTYMGIASAMVGMYLADKHDIRYAILCLVIAGVCDLFDGKIARMCKRTEDEKLFGIQLDSLADVICFSALPISIFYGLGLNKWYHVVIYTAFTLAAITRLGFFNIKVMDSNRDKPVDYYSGLPVTCSAMIFPLFWLLSFCLDRHIFLLIYTIIIAVVAFLFVANIKIKKPKGIAYGVFVVLAVLMSLGIIFIGV
protein production: failed

MFIIIGDLIAFVISVLVTLIIASVPVWVAAKIVAKRSTFGQAVAATLLSLIIFFILLFVFSIFTPFIGGIFGFIGALWVFRKVYNIGWVDSLALTIIAIFIAIMIYIILGAFLFPVIHTSMIHEHAVVTSIIV
protein production: failed

MFIPAAQSAYRTLRKTQPRVRLNAIFKNGYSSKVEYKPIRSVLVANRGEIAIRVFRACTELGIKSVAVYSEQDKMHMHRQKADESYIVGKGLPPVEAYLNIPELIRVCKENDVDAVHPGYGFLSERSDFAQAVIDAGLRFIGPSPEVVQKMGDKVAARVAAIEAGVPIVPGTDGPVTTKEEALEFCKKHGLPVIFKAAYGGGGRGMRVVRKMEDVEESFQRASSEAKAAFGNGAMFIEKFIERPRHIEVQLLGDKAGNVVHLYERDCSVQRRHQKVVEIAPAPRLPIEIRDKMTEAAVRLARHVGYENAGTVEFLCDESGNFYFIEVNARLQVEHTVTEEITGIDLVQSQIRVAEGMTLPELGYTQDKIVPRGYAIQCRVTTEDPANDFQPNTGRLEVFRSGEGMGIRLDSASAYAGAIISPYYDSLLVKVISHASDLQSSASKMNRALREFRIRGVKTNIPFLLNVLENQKFLHGVLDTYFIDEHPQLFKFKPSLNRAQKLLNYMGEVLVNGPQTPLATTLKPALVSPHVPEVPLDLSPEAIEREERGEAKVTEPPKGLREVLVCEGPEAFAKEVRNRKELLLMDTTFRDAHQSLLATRVRSHDLLKISPYVTHKFNNLYSLENWGGATFDVALRFLHECPWERLEEMRKRIPNIPFQMLLRGANAVGYTSYPDNVVYKFCELAVQTGMDIFRVFDSLNYLPNLILGMEAAGKAGGVVEAAISYTGDVSDPKRTKYDLKYYTNLADELVKAGTHVLCIKDMAGLLKPESARLLITAIRDKHPDIPIHIHTHDTSGAGVASMLACANAGADVVDVAVDSMSGMTSQPSMGAVVASLQGTPLDTNLDLRTVSEYSAYWEQTRTLYAPFECTTTMRSGNADVYLNEIPGGQYTNLQFQAFSLGLGDFFEDVKKAYREANLLLGDIIKVTPSSKVVGDLAQFMVQNDLTADQVLERAEELSFPKSVVEYLQGSIGIPHGGFPEPLRSRVLKDMPRIEGRPGAELKDLDFDKLKKELQESHTCVTNRDVMSAALYPQVTNDFLNFREKYGPVDKLDTRIFLTGPKVGEEFDVPLERGKTLSVKALAVSADLKPNGIREVFFELNGQLRAVHILDKEAVKEIHVHPKANKSNKSEVGAPMPGTVIDIRVKVGDKVEKGQPLVVLSAMKMEMVVQSPLAGVVKKLEIANGTKLEGEDLIMIIE
protein production: failed

MFIREEEQMKRMIITIGRQSGSSGRKVGELLAERLSLPLYGKAELQKIAEGTDDYEEVQAFYEEEPVNSLLYAIAMSQFEQEVGRIPFQRIRELASKESCIIIGRCAGHIFREDPEAVRVFIHADPKIRVQRIMEREGLSETKAKKFLEDTDSRRASFHKYYTKQEWGLAQDYELCLDSGVLGIEGTVEVLTEYLRFRGFLGNE
protein production: failed

MFISCIILINYSYIFGKNIRYLYEFKVIWKSNNSLILFFIEFDRNFMTIKFKLFKCRRLNILIELINIENYFRNGNILCFIFNIPSIPRNLLINVFLTSSNKVNISIQGLKLEHHHHHH
protein production: failed

MFITTEGINAGYTIKDVVEATSSLMLASEDIDKYNMFDQLFDEAKQKLKKKADLLEGDGIIGLKYNTEVVEVNGAPKFLVVHGYGTVILIDK
protein production: not failed

MFKGDMNKKRAKALQKVKEAITLHGGQTILSTGITGDDARLAKAVCEAGVKLLEPNHPALALARGHKGVSNMHAAEQIRHEITNSQMAEAVHGVRNVVPDDIFITVGIAGGFTETLPVPLSEKEILEIARAGADGLHTHKSDWDDLQDIVNLAHQYGLTVDAYIGHPDDLHTFGIPARTPEEVASVAKRMQDIGVDMIGLMTGMSYEGVAAGDIPQMIKDRLRALVGAVDVPTLAEGGINLANAKAFKDTGVNILVVGTAIDNMVCNAAKEAVTPFIVH
protein production: not failed

MFKPEEMVKIELISLARYRDIIMTYLHERGVVQLEEVPIEDIQHDAPNEYYRKATSYSITMGRLVDTLKGFLPPRKTSIKEFIFPKEREKRVYTYRGIEDLVKDVEKFLSEVEPKIREVETQLTAINNRIANIREIINTLELLSSLNIEIEYLIPGSFLAIEVGKIERERVEKLIGELKNELGDKVFILRRDLGTISLLVVVTLKEFQGKLTSILAKYGFEKVEIPRERGHPRELIPKYNELLKEEMKKLEEIRKKGREFAEKYYEDLVFYKELMDNERDKANYLSYLARTELTVALVGWLPKKNVEEVVEGIKNLTGGKVYINIREPEPNEIEEVPVKLKNPEFISQFEMLTEMYGVPKYNELDPTPILAFTYSFFFGFMLTDFMYGLLLGIVSALLVKGHSKMKDGTWKFAKIMLWSSVFTMLLGALFGSYFGNALDMAGFKVPRIMDAMEEALTVLIIALAIGLGHLFTGYVLGFIVKWKNGDKVGAILDQLSWILIILGVTLFAISSRIDLPKLAWMSVFGAGAVLFIIGEFKNNGLMALLLVISDFFGFVGNWLSYARLMALALATAGIALVINIMVQMIWGFKIGPVPLGIIVGAIVFIGGHIFSTAINALGAFVHALRLHYVEFFGTFYSGEGRRFEPFAARREISELKIEKPGGE
protein production: failed

MFKVLQCLTIDHDYRYTAAAVVVCMLGSFVTMRLFSKARLATGLQKVNWLFLAGVNGGAAIWTTHFVAMLGYVAAGDVGYDPYLTGLSLLIAITTTTAGFGISAYGGRSVLVEAGGTILGLGIAAMHYTGMAAYNVQGMIFWDQAYVIASLVLGSVLGAIAVNRIARPLNRFCQYSAVAFLILAIASMHYTGMASMSFAFDPRIIIPENLLPPAIMGGGAIAVTLLLLALGLSTYVIDAQSTQQAVARYRHLSLHDPLTGIPNRAAFIEHLNRRTRHISMGAHTALLSIDLDRFKEINDVHGHAAGDAVLRAIADRASSVLKAGEFLARMGGDEFVAMTHSYYTRADGAEFAQRLIEQISKPVEWNGQTFSVGASVGISVRNTGSIDADTLMAQADVAMYRAKSATSDTICFYDKSMDEAARARNALAIAMRSGLANNEFELYYQQQNDTKSGSIVGFEALLRWKHPERGMVSPVEFIPIAEQTGFIVELGEWVLREACAQAARWKKSLAIAVNVAPQQLADNDFPDKVERILAETGLAPERLELEITEGSIIADHRHALVTIRKLKSLGVKIAMDDYGTGYSSLSTLQSFPFDKIKIDRAFIDGLSTNVQSEAIVRSTLILAHSLNIPVLAEGVETKAHIEFLRREGCLQVQGFFFGKPGPLTSIANLVDDTFLSAEDETEEASGRRYIKVVR
protein production: failed

MFLGELTERPVSLYAAAVLRIGYGLLYLAFLLREFPHRDEIWGPGSPWTPELARQLFDQTGWVSILTLSDGRAYFEACYALALVTCALFLLGWRTRAVSVLFAVVVASFHARAIFMTDGGDNLVLLMAVYLVFTACGRRWSLDARRTRLRAGASPAASPPARQEADGFRRQLGASRRTLTAVLHNCGMFVIAAQVCFLYGSAGLYKVQGGSWGNGTALHYVLNLDLFRPWPELSLLTDEHDVLMAIACYLTVLLQVAFPFVLFGRLKYPVLTVLLGMHLGIAVLLGLPLFSGAMIVADAVFLPDRCYLLLGRLWRRAGRRTGSTEAGAPARGESAFLPPQSAVSSPRTAAAPVRGRRA
protein production: failed

MFLKKGKKKLYKSGKNWVAALLLSAAVLSFYSAGLNQQTASAATSSQTKAVSYDKITNKQTVNYSAYVNENNRNDGLYSAPALTDVASMTSTGSAKSLNGHLVMVSEIDTTKRASTGVSYQYAKITDNNKSYWVDLRALNDSAQITSTQTVNFQAYINGDTRNDGLYSAPALTTSSSLTPLAYSKSLNKKSVMVSEINTTKRASTGLSYQYAKITYNGKTYWVDARAVFDSITSKQTNLNYYATISETNRNDGIYEEPALTSLASMASTGSVKTFDQDSVEVLEIDTTFRNSNDQKYQYAKVTNGTNTYWVDVRALNTSGFAKITSSKTEDYSAYINEANRKDSIYDNGPALTSPTTLTASALAKTVNGDQVEVIALDTTTRSNGSQYTYLEVKDGSNTYWIDSRAVTAYNFDSITNQQTVNETATINEGGRSDGLYNAPALTSPSSLTSTGSAKDLDGQTVTILEIDTTKRASNGNTYQYAKIAYNGKTYWVDARALNNSTYSGAIMVNFEDENGNQLASPIEYTGKIGSTYQPEPKAITGYSVDLAKTGSIDLTYSSTTQTITYIYEKSTATTTDLINGQGQGIDNDSWTVGSDVQPGWYKITPIGLGTDDNIVLNVEGSDSSDLPLANDISGAWFGSDSSAGEISSYQAYLTAGQVIEMQDNGTDAAAGQGLHLETLSTRPATSLIDPESPIPSSFQDLGAGIYEVGVDIRPGNYQVADILGEGYLYTDDGTVSLDLGTGHGDTSTGTITLTTGELLTSTINGISLEPEN
protein production: failed

MFLNGKVFIKGALGPRRRDASVSATQSQGAGGGVWGGPGSELAPPSRPRGRASGLLRIKLFEASRLRSRERKMAAPAGGGGSAVSVLAPNGRRHTVKVTPSTVLLQVLEDTCRRQDFNPSEYDLKFQRTVLDLSLQWRFANLPNNAKLEMVPASRSREGPENTVRIALQLDDGCRLQDSFCSRQTLWELLNHFAQTRERLQQLGERTPVCVYMRDEVTGRAALQNTTLQSLGLTGGSATIRFVIKQYDTTGKQESIAVRSKPPGSPVSSMSADQASSSPLLPLNSGEFSRGDLNHQGGASTSGTSLKGGPKPADAQTKQSTTKESASAPFIPFSGGGQRLGGPSVSLRSLTSPAAKSSTSFSGPGGPSKPKKSKPGEEPPQEPEPPVDRDPVVCHPDLEDLLQPWPAEVPDEFFEVTVDDVRRRLAQLKSERKRLEEAPLVTKAFREAQMKEKLERYPKVALRVLFPDRYILQGFFRPSETVGDLRDFVRSHLGNPELSFYLFIAPPKMVLDDHTLTLFQVPIALRVLLGLAVLGGQALCCGWVGKEPWQALQWVIKPLEPVNSEGAVASEVVSDWAFQPPPLPAWPRGGDWPAQLAGLLSSAGAA
protein production: failed
